Molecular target: di-nucleosome of X. laevis histone octamers on two Widom 601 sequences (unmodified) (X. laevis)
Test: cryo-EM structure

- stoichiometry N (hetero-tetramers per di-nucleosome): 2
Substance: DNMT3A2/3B3 hetero-tetramer (from UniProt Q9UBC3-3 1-770) (complex)
